The nature of data set [1]: western blot of eIF4E, Huh7 and PLC/PRF/5. The note with it: glycan lost; control: control shRNA. On the technique in general: In western blotting, separated proteins are transferred to a membrane and probed.
Data set [2] can be described thus: cycloheximide chase, western blot, Huh7. The note with it: glycan lost; control: wild-type eIF4E.
Data set [3] in a line: Flag IP, anti-ubiquitin blot, MG132-treated Huh7. To be noted: glycan lost; control: wild-type eIF4E.
Data set [4] in a line: western blot of exogenous eIF4E, Huh7. The note with it: glycan lost; control: wild-type eIF4E.

Consider “eukaryotic initiation factor 4E (eIF4E): OGT shRNA1 / OGT shRNA2”, for which the expression_or_secretion entry in data set [1] is recorded as “decreases”.

Turning to “eukaryotic initiation factor 4E (eIF4E): T168,177A”, in data set [2], the degradation_or_half_life result was “decreases”. Also, the “other: ubiquitination” value in data set [3] was “increases”. Moreover, the expression_or_secretion result in data set [4] was “decreases”.

For “eukaryotic initiation factor 4E (eIF4E): T168A”, in data set [2], the degradation_or_half_life result is “decreases”. Moreover, in data set [3], the “other: ubiquitination” value is given as “increases”. Moreover, the expression_or_secretion entry in data set [4] is on record as “decreases”.

For “eukaryotic initiation factor 4E (eIF4E): T177A”, in data set [2], the degradation_or_half_life result was “decreases”. Besides, in data set [3], the “other: ubiquitination” value was “increases”. Besides, the expression_or_secretion entry in data set [4] is listed as “decreases”.

The values are drawn from article PMC6433694.
